According to patent US4734420A, “Anti-hypertensive agents” (priority 1980, dated 1988):

Substrate: CC(C)C[C@H](NC(=O)[C@H](Cc1cnc[nH]1)NC(=O)CNC(=O)c1ccccc1)C(=O)O
Experiment: purified protein, by the assay type
Format: biochemical
Settings: other: substrate hippuryl-His-Leu, human urinary ACE, pH 8.0
From the text: The role of ACE in the pathogenesis of hypertension has prompted a search for inhibitors of the enzyme that could act as antihypertensive drugs. See for example U.S. Pat. Nos. 3,891,616, 3,947,575, 4,052,511 and 4,053,651. […]. No. 4,046,889 to Ondetti et al., issued Sept. 6, 1977, and in scientific articles by Cushman, D. W. et al., Biochemistry 16, 5484 (1977), and by Ondetti, M. et al., Science 196, 441 (1977). […]. These factors include the source of enzyme, its purity, the substrate used and its concentration, and the composition of the assay buffer. All I50 data reported herein have been performed with the same assay system and same enzyme (human urinary ACE) and with an approximately 1/2 Km level of substrate and are therefore internally consistent. Discrepancies with data obtained by other workers may be observed. Indeed such discrepancies do exist in the literature, for unknown reasons. See, for example, the I50 values for BPP9a reported by Cushman, D. W., et al., Experientia 29, 1032 (1973) and by Dorer, F. E., et al., Biochim. Biophys. Acta 429, 220 (1976).
The inhibitory potency of N^α -[3-(L-α-glutamylthio)-2-D-methyl-propanoyl]-L-proline in vitro was measured in the following assay. […] The enzyme was assayed in 0.05M Hepes buffer, pH 8.0 containing 0.1M NaCl and 0.75M Na2 SO4. […]

B1: Human urinary ACE (Homo sapiens) (protein)
chain: LDPGLQPGNFSADEAGAQLFAQSYNSSAEQVLFQSVAASWAHDTNITAENARRQEEAALLSQEFAEAWGQKAKELYEPIWQNFTDPQLRRIIGAVRTLGSANLPLAKRQQYNALLSNMSRIYSTAKVCLPNKTATCWSLDPDLTNILASSRSYAMLLFAWEGWHNAAGIPLKPLYEDFTALSNEAYKQDGFTDTGAYWRSWYNSPTFEDDLEHLYQQLEPLYLNLHAFVRRALHRRYGDRYINLRGPIPAHLLGDMWAQSWENIYDMVVPFPDKPNLDVTSTMLQQGWNATHMFRVAEEFFTSLELSPMPPEFWEGSMLEKPADGREVVCHASAWDFYNRKDFRIKQCTRVTMDQLSTVHHEMGHIQYYLQYKDLPVSLRRGANPGFHEAIGDVLALSVSTPEHLHKIGLLDRVTNDTESDINYLLKMALEKIAFLPFGYLVDQWRWGVFSGRTPPSRYNFDWWYLRTKYQGICPPVTRNETHFDAGAKFHVPNVTPYIRYFVSFVLQFQFHEALCKEAGYEGPLHQCDIYRSTKAGAKLRKVLQAGSSRPWQEVLKDMVGLDALDAQPLLKYFQPVTQWLQEQNQQNGEVLGWPEYQWHPPLPDNYPEGIDLVTDEAEASKFVEEYDRTSQVVWNEYAEANWNYNTNITTETSKILLQKNMQIANHTLKYGTQARKFDVNQLQNTTIKRIIKKVQDLERAALPAQELEEYNKILLDMETTYSVATVCHPNGSCLQLEPDLTNVMATSRKYEDLLWAWEGWRDKAGRAILQFYPKYVELINQAARLNGYVDAGDSWRSMYETPSLEQDLERLFQELQPLYLNLHAYVRRALHRHYGAQHINLEGPIPAHLLGNMWAQTWSNIYDLVVPFPSAPSMDTTEAMLKQGWTPRRMFKEADDFFTSLGLLPVPPEFWNKSMLEKPTDGREVVCHASAWDFYNGKDFRIKQCTTVNLEDLVVAHHEMGHIQYFMQYKDLPVALREGANPGFHEAIGDVLALSVSTPKHLHSLNLLSSEGGSDEHDINFLMKMALDKIAFIPFSYLVDQWRWRVFDGSITKENYNQEWWSLRLKYQGLCPPVPRTQGDFDPGAKFHIPSSVPYIRYFVSFIIQFQFHEALCQAAGHTGPLHKCDIYQSKEAGQRLATAMKLGFSRPWPEAMQLITGQPNMSASAMLSYFKPLLDWLRTENELHGEKLGWPQYNWTPNSAR
notes: from tissue; host or cells: human urine
Question: With B1 as the protein, how does the Km read?
Answer: 200 µM
